Ends that are not written are not given here.
T1: ENaC (Homo sapiens, UniProt P37088+P51168+P51170)
T1 construct: measured the transepithelial voltage under thin film conditions in human bronchial epithelial cultures; endogenous in cells; host or cells: primary human bronchial epithelial cultures (normal or CF donors)
T1 sequence (P37088 1-669): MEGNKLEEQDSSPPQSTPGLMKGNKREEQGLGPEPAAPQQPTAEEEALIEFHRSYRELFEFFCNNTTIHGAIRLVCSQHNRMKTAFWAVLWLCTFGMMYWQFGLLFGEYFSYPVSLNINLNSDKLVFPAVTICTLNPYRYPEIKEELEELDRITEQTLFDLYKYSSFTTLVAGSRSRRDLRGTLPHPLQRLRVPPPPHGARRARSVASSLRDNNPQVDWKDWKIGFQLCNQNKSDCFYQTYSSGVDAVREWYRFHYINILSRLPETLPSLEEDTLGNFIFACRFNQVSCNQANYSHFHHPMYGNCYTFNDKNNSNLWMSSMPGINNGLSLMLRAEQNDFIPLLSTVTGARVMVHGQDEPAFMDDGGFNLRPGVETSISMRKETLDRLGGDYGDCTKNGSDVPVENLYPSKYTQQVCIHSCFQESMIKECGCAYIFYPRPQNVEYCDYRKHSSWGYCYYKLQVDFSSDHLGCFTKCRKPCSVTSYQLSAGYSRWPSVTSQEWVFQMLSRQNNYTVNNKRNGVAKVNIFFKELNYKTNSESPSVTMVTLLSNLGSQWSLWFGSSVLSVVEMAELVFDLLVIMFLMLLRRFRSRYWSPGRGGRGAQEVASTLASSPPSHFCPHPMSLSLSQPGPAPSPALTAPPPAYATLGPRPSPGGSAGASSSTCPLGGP
T1 sequence (P51168 1-640): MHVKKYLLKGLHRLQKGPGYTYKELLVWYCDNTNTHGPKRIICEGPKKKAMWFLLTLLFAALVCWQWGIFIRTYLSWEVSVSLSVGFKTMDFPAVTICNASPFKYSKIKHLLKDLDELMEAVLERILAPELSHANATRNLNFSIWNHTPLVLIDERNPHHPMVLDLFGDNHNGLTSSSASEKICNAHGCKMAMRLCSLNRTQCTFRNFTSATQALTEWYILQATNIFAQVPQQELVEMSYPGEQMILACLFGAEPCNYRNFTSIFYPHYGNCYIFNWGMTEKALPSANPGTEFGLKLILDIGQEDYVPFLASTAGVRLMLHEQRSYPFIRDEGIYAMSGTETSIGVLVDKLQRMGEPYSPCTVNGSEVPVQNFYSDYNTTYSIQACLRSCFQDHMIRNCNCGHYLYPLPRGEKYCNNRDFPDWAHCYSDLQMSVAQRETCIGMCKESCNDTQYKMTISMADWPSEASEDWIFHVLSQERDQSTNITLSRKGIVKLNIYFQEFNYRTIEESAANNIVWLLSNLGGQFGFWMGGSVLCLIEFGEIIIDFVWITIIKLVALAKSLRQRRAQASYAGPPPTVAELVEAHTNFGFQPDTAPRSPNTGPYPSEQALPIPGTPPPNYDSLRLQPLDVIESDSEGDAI
T1 sequence (P51170 1-649): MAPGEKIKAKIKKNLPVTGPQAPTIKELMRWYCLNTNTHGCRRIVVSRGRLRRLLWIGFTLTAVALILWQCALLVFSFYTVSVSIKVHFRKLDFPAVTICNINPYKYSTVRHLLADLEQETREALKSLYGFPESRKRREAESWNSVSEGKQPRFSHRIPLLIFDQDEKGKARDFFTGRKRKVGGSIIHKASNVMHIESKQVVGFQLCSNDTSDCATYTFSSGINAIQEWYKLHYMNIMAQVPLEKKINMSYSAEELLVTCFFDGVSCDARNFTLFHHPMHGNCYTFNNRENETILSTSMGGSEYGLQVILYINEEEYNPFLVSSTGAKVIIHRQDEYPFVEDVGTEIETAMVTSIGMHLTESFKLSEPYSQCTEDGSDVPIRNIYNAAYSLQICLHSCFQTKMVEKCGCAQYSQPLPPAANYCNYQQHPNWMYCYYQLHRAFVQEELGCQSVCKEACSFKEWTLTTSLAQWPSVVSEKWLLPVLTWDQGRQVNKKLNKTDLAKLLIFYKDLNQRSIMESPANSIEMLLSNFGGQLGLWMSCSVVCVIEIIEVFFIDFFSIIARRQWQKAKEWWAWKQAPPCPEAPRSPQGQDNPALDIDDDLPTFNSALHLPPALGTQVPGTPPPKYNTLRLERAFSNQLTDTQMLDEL


Tests used:
ENaC [1] = molecular target: T1, ENaC; test: Thin film amiloride-sensitive transepithelial PD in CF HBECs; assay type: cell-based; conditions: 10 μM S18, over 24 h
Experimental: A, airway surface liquid (ASL) height with time in CF HBECs measured by XZ confocal microscopy after apical addition of 20 μl Ringer with rhodamine-dextran. ▪=control; ▴=10 μM S18. Both n=6. B, Thin film amiloride-sensitive transepithelial PD measured in the same cultures as A, with microelectrodes positioned in the ASL and serosal bath. Open bars, control, closed bars, S18, n=6. C, Dose response to S18 vs. ASL height in CF primary human bronchial epithelial cultures (HBECs) measured 8 h after S18 addition. D, Bar graph of 8 h ASL height in CF HBECs. Control (open bars), S18 black bars, aprotinin, gray bars. NE, neutrophil elastase. ANS, activated neutrophil supernatant. All n=6. *p<0.05 different to vehicle. †p<0.05 different to aprotinin.
(§1) A single-barreled potential difference-sensing electrode was placed in the airway surface liquid by micromanipulator and used in conjunction with a macroelectrode in the serosal solution to measure transepithelial voltage using a voltmeter (World Precision Instruments). […] Transepithelial resistance was routinely measured using the EVOM system (WPI) as previously described (Tarran et al., J. Gen. Physiol. 127:591 (2006)).

ENaC [2] = molecular target: T1, ENaC; test: Transepithelial voltage (PD), thin film conditions, human bronchial epithelial cultures; assay type: cell-based
From the text: Tissue procurement and cell culture: Cells were harvested by enzymatic digestion from human bronchial tissue as previously described under a protocol approved by the UNC School of Medicine IRB (Tarran et al., J. Gen. Physiol. 127:591 (2006)). Human excess donor lungs and excised recipient lungs were obtained at the time of lung transplantation from portions of main stem or […] bronchi and cells were harvested by enzymatic digestion. All preparations were maintained at an air-liquid interface in a modified bronchial epithelial medium and used 2-5 weeks after seeding on 12 mm T-Clear inserts (Corning Costar) coated with human placental type VI collagen (Sigma). Phosphate buffered saline (PBS) was used for washing human bronchial epithelial culture mucosal surfaces. HBECs were maintained at an air-liquid interface in a modified bronchial epithelial growth medium (BEGM) with 5% CO2 at 37° C. and used 2-5 weeks after seeding on 12-mm T-clear inserts (Corning-Costar, Corning, N.Y., USA) (Randell, Methods Mol. Biol. 742:285 (2011)).
as §1

Molecule | amiloride-sensitive PD (ENaC [1]) | transepithelial voltage (ENaC [2]; 50 ng/ml rSPLUNC1 in 20 μl Ringer, PBS-washed cultures) | regulation of transepithelial voltage in cultures lacking SPLUNC1 (ENaC [2]; SPLUNC1 shRNA knockdown, 50 ng/ml rSPLUNC1) | transepithelial voltage, cultures not pre-washed (ENaC [2]; airway surface liquid left to accumulate for 24 h) | onset of inhibition (ENaC [2]; human bronchial epithelial cultures, FIG. 2C, 2D) [min] | transepithelial voltage, addition to amiloride-treated cultures (ENaC [2]; rSPLUNC1 added to the same amiloride-treated cultures, n=12) | rate of inhibition of the transepithelial voltage (ENaC [2]; rSPLUNC1 vs aprotinin addition, effects not additive)
GGLPVPLDQTLPLNVNPA [S18] | reduced the amiloride-sensitive PD | – | – | – | – | – | –
SPLUNC1: human SPLUNC1 (SEQ ID NO:1), 256 amino acid secreted PLUNC family protein; rSPLUNC1 is the purified V5/6His-tagged recombinant form (protein, listed as Homo sapiens, V5/6His tag in recombinant form, rSPLUNC1 is the purified V5/6His-tagged recombinant form) MFQTGGLIVFYGLLAQTMAQFGGLPVPLDQTLPLNVNPALPLSPTGLAGSLTNALSNGLLSGGLLGILENLPLLDILKPGGGTSGGLLGGLLGKVTSVIPGLNNIIDIKVTDPQLLELGLVQSPDGHRLYVTIPLGIKLQVNTPLVGASLLRLAVKLDITAEILAVRDKQERIHLVLGDCTHSPGSLQISLLDGLGPLPIQGLLDSLTGILNKVLPELVQGNVCPLVNEVLRGLDITLVHDIVNMLIHGLQFVIKV | – | significantly reduced the transepithelial voltage | restored | without further effect | 30 to 60 | without further effect | identical rates

From patent US9127040B2, “Regulation of sodium channels by PLUNC proteins” (The University of North Carolina at Chapel Hill, priority 2011, dated 2015)
